What was measured:
[1] = target: T1, recombinant human domain 1-3His6 of the cation-independent mannose-6-phosphate receptor (human, UniProt P11717 41-467); experiment: BLI at pH 7.4, 2nd of 2 repeats; BLI, biotinylated hDom1-3His6 on streptavidin tips, pH 7.4, experiment 2
T1 construct: Biotinylated (NHS-PEG4-biotin) for BLI; Glycosylated; also called hDom1-3His6; hCI-M6PRD1-D3

[2] = target: T2, F457E; experiment: ELISA on coated antigen (100 ng), anti-VHH-HRP, A450
T2 construct: also called human CI-M6PR Dom1-3His6 F457E
T2 chain: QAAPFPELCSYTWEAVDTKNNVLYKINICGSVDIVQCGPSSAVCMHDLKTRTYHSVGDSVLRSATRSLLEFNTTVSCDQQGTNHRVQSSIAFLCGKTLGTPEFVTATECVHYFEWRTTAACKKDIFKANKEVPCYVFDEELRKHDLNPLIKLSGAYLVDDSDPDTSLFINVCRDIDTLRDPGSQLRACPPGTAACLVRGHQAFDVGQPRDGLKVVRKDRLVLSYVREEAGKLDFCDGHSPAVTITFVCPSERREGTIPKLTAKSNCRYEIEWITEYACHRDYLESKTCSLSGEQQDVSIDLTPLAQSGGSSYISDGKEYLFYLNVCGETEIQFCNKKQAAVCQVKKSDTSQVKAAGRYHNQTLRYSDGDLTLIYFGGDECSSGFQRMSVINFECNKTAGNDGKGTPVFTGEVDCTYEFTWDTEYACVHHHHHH
Summary of the method: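 Each purified mutant coated at 100 ng per well in 50 mM MES, 150 mM NaCl, pH 6.5 overnight at 4° C; coating-only wells used for background correction. Detection with anti-VHH-HRP, stopped after five minutes with 2N H₂SO₄, read at 450 nm with 655 nm correction.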

[3] = target: T3, human cation-independent mannose-6-phosphate receptor, native, on cells (human, UniProt P11717 41-2491); experiment: flow cytometry, FLAG3-His6 VHH on HEK293T cells
T3 construct: whole, on cells; also called native CI-M6PR; cell-surface hCI-M6PR
Text: (§1) Synthetic DNA fragments encoding VHHs were ordered (IDT, Leuven, Belgium) and subcloned into an E. coli expression vector under control of an IPTG-inducible lac promoter, in frame with N-terminal PelB signal peptide (which directs the recombinant proteins to the periplasmic compartment) and C-terminal FLAG3 and His6 tags. […] VHH proteins were purified from these clones by means of IMAC chromatography followed by desalting according to well established procedures¹⁰⁶. Cells used herein were recovered using cell dissociation non-enzymatic solution (Sigma Aldrich, cat. #C5914-100ML) and resuspended to a final concentration of 1,000,000 cells/mL in FACS buffer. Cells were incubated with different concentrations of purified FLAG3-tagged VHHs for 30 minutes on ice with shaking, followed by washing and incubation with mouse M2 anti-Flag mAb (Sigma Aldrich, cat. #F-1804) in FACS buffer for 30 min on ice with shaking, followed again by washing. […] Flow cytometry and analysis were done on an Attune NxT Flow Cytometer (Thermo Fisher Scientific).
(§2) Moreover, cross-reactivity to mouse CI-M6PR was analyzed, in view of the amino acid homology between mouse and human being overall about 80% identity, but for domain 1-3 of CI-M6PR just about 75% identity.

[4] = target: T1, recombinant human domain 1-3His6 of the …; experiment: BLI, dissoc pH 5.5, mean of local fits
Protocol: (§3) FIGS. 58 & 59. […] BLI was performed on an Octet Red96 (FortéBio) instrument in kinetics buffer (0.2 M Na₂HPO₄, 0.1 M Na⁺ citrate, 0.01% bovine serum albumin, 0.002% Tween-20). Biotinylated human domain₁₋₃His₆ was immobilized on Streptavidin SA biosensors (Sartorius) to a signal of 0.6 nm. […] Between assays, biosensors were regenerated by three times 10 s exposure to regeneration buffer (10 mM glycine pH 3). The degree of association and dissociation was measured in δ nm over time (s).
(§4) After loading, the tips were incubated with VHHs serially diluted in pH 7.4 kinetic buffer during the association phase and dissociation was performed at pH 7.4, pH 6.5, pH 6.0, pH 5.5 and pH 5.0. All biosensor tips were then regenerated before analysis of the subsequent VHH. Table 13 summarizes the kinetic parameters retrieved after processing and curve fitting of the BLI measurements. When both association and dissociation were performed at pH 7.4, a global fit was performed according to the 1:1 binding model of which the resulting affinity constants (KD), association (kₒₙ) and dissociation rate constants (koff) are shown. For measurements with association at pH 7.4 and dissociation at pH 6.5, 6.0, 5.5 and 5.0, the depicted dissociation rate constants are an average of the parameters determined by local curve fitting of the dissociation of 200, 100 and 50 nM VHH.

[5] = target: T1, recombinant human domain 1-3His6 of the …; experiment: BLI, dissoc pH 6.5, mean of local fits
Protocol: as §3, §4

[6] = target: T1, recombinant human domain 1-3His6 of the …; experiment: BLI, dissoc pH 6, mean of local fits
Protocol: as §3, §4

[7] = target: T4, mouse cation-independent mannose-6-phosphate receptor on cells (mouse, UniProt Q07113 36-2483); experiment: flow cytometry, FLAG3-His6 VHH on mouse bEND3 cells
T4 construct: whole, on cells; also called mouse CI-M6PR of bEND3 cells; mCI-M6PR
Text: as §1, §2

[8] = target: T4, mouse cation-independent …; experiment: flow cytometry on fixed/permeabilised mouse bEND3 cells (sheet: Binding FACS in bEND3 (Fixed/Permeabilized); legend: internalisation detected upon permeabilisation) [upper graph]
Text: as §1

T4 sequence (Q07113 36-2483): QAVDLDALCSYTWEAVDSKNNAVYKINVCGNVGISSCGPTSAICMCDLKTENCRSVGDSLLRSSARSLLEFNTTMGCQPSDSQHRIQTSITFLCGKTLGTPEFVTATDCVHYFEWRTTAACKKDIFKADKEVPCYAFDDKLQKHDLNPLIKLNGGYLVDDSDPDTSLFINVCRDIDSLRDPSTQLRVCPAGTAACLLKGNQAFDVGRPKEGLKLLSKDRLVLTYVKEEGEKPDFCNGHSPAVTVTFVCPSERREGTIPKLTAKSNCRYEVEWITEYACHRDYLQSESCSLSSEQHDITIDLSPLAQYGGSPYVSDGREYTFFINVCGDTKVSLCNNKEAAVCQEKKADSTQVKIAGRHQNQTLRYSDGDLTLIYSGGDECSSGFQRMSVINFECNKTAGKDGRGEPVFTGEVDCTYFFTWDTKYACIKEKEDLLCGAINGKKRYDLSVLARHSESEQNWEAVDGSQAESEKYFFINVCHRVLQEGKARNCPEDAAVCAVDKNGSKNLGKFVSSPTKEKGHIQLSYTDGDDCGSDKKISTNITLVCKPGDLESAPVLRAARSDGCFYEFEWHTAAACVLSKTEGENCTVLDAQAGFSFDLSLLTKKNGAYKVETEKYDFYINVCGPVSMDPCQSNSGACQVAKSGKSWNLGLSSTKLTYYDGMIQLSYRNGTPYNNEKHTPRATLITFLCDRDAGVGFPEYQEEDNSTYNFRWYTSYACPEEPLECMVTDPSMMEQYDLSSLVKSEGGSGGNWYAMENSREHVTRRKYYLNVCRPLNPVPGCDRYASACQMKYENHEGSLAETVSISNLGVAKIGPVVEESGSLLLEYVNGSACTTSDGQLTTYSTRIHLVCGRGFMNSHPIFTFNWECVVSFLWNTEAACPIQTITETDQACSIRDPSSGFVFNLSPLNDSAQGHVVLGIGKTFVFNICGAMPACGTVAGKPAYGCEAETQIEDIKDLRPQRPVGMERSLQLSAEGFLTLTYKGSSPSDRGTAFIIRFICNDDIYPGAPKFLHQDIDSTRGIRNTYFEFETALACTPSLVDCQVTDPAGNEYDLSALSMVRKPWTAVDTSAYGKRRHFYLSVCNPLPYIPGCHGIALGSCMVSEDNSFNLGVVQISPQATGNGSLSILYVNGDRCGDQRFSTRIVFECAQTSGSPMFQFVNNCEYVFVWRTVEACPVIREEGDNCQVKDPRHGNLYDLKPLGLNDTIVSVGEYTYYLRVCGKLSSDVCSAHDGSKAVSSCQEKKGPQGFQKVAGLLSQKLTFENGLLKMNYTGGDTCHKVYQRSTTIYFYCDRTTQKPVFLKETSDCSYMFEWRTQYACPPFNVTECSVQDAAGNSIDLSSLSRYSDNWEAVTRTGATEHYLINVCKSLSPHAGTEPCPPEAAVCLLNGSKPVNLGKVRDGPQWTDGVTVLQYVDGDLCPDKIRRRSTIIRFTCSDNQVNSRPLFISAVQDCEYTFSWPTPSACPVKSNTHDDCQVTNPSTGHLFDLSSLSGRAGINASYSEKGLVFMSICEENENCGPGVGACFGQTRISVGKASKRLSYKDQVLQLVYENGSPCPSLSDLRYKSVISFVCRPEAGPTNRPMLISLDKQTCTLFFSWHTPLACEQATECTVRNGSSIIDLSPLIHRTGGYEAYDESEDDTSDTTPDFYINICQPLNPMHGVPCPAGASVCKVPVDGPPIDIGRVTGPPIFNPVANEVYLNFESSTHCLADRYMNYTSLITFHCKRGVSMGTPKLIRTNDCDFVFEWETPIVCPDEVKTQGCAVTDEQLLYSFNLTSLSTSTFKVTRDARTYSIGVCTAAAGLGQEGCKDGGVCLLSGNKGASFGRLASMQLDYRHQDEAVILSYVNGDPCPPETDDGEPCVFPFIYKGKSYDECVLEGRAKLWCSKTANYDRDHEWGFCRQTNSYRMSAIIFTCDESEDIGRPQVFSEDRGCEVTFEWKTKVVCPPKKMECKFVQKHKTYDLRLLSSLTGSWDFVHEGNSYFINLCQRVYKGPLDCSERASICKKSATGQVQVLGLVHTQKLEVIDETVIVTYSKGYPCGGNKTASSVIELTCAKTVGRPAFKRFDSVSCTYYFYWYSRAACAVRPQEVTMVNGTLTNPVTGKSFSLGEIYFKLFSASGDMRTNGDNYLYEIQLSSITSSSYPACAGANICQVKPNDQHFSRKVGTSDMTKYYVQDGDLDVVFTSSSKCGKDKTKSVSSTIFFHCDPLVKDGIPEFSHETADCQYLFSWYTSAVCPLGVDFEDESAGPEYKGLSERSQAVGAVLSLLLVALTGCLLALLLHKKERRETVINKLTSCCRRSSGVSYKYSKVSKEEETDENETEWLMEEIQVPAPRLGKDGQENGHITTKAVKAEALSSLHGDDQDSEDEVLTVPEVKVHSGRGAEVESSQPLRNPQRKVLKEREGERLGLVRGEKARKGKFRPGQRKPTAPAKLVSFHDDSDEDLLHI

B1: anti-CI-M6PR VHH4 (VHH)
VHH: QVQLQESGGGLVQAGGSLRLSCAASGRTFSNYVMGWFRQAPGKEREFVGSISQGGKMTYYPDSVKGRFTISRDNAKNTMYLQMDGLKPEDTAVYYCAVSRGYPMVRVSEVDYWGQGTQVTVSS
notes: His6-tagged; made in Pichia pastoris
[1]
  Kd: 2.34 nM
  kon: 571000 M⁻¹ s⁻¹

B2: anti-CI-M6PR VHH8 (VHH)
VHH: QVQLQESGGGLVQAGGSLRLSCEASGRTFNTYNWGWFRQAPGKEREFVAAIRWSSSKTSYADSVKGRFTISRDNAKNTIYLQMNSLKPEDTAVYYCAASIVDFTTNPSHFGSWGQGTQVTVSS
notes: His6-tagged (Pichia pastoris)
[2]
  EC50 (read off the curve): ~10 nM
[3]
  EC50: 0.8 nM

B3: anti-CI-M6PR VHH 1H11 (VHH)
VHH: QVQLQESGGGLVQPGGSLRLSCAASGIIFSDNRMDWYRQAPGKQREWVATLASYGWKTYADSVKDRFTISRDNAKNTVNLYMNSLQPEDTAVYYCNSGQYWGQGTQVTVSS
notes: made in E. coli WK6, His-tag purified
[4]
  koff: 0.0063 s⁻¹
[5]
  koff: 0.0048 s⁻¹
[6]
  koff: 0.0051 s⁻¹
[2]
  EC50 (read off the curve): ~0.4 nM

B4: anti-CI-M6PR VHH7 (VHH)
VHH: QVQLQESGGGLVQPGGSLRLSCAASGIIFSDNRMDWYRQAPGKQREWVATLASYGWKTYADSVKGRFTISRDNTKNTVYLRMNSLKPEDTAVYYCKASSPVLNDIWGQGTQVTVSS
notes: His6-tagged (Pichia pastoris)
[7]
  EC50: ~8.5 nM
[8]
  EC50 (read off the curve): ~50 nM
[3]
  EC50: 20 nM

— patent publication US20250263490A1 (VIB VZW, published 2025)
